# PMC3212032
# Where “and” joins values, the source holds several entries; their conditions need not be identical. Identical values can stand only once. Like-named read-outs stand apart in the source and are kept apart here.
# Experiments:
# [1] = target: HIV-1 integrase F185K (pNY strain) (human immunodeficiency virus type-1 (pNY strain)); experiment: SEC
# [2] = target: HIV-1 integrase F185K (pNY strain) (human immunodeficiency virus type-1 (pNY strain)); experiment: SEC; remark: listed apart in the source
# [3] = target: wt HIV-1 integrase (pNY strain) (human immunodeficiency virus type-1 (pNY strain)); experiment: SEC
# [4] = target: wt HIV-1 integrase (pNY strain) (human immunodeficiency virus type-1 (pNY strain)); experiment: cross-linking
# [5] = target: wt HIV-1 integrase (pNY strain) (human immunodeficiency virus type-1 (pNY strain)); experiment: cross-linking; remark: listed apart in the source
# [6] = target: wt Rous sarcoma virus integrase (286 residues) (Rous sarcoma virus); experiment: SEC
# [7] = target: wt Rous sarcoma virus integrase (286 residues) (Rous sarcoma virus); experiment: SEC; remark: listed apart in the source
substance,measurement,setting,value
HIV-1 integrase F185K (pNY strain) (enzyme),percent converted to tetramers,[1],65%
same,stoichiometry N,[1],2 and 4
same,stoichiometry N,[2],2
wt HIV-1 integrase (pNY strain) (enzyme),stoichiometry N,[3],4
same,stoichiometry N,[4],2
same,stoichiometry N,[5],2 and 3 and 4
wt Rous sarcoma virus integrase (286 residues) (enzyme),stoichiometry N,[6],2 and 4
same,stoichiometry N,[7],2 and 4
